Laboratory results: the DeepSol protein solubility set

Assay: soluble on expression in E. coli; label from the status in PepcDB or PDB records

| Sequence | soluble on expression in E. coli |
| --- | --- |
| MSDPAGNRPKTEKELKKEAEKAAKLAKFEEKQKKLAEKKAAASDKPVKEAKAKKEQTVEAAEPVDQTPTGQRKKIDGEIPAAYFPGYVESGWYSWWEKEGFFKPEYIDKLNPGSNPADSFTVCIPPPNVTGNLHVGHALATTVEDTITRFNRMHGKRTLFNPGCDHAGIATQVVVEKRLKRERGLTRHDLGRDRFNQEVWHWKNEKGDVIYDQFRKLGASVDWDRAVFTMDPKMCRAVTEAFIRMHESGTIYRSNRLVNWSCALRSAISDIEVDKKELTGSTLIAVPGYDKKIEFGVLNSFAYKIQGSDEEIVVSTTRIETMLGDSGVAVHPDDQRYKHLVGKQCIHPFIPTRNLPIFADSFVEMEFGTGAVKITPAHDHNDYEVGIRQNLPFHNCITDDGLISQGCGEFSGMKRFDARTAVIEALKEKGLYRGKEDNPMVVPTCSRSKDVIEPILKPQWYVKCAHMAEKAVAAVANGDLQIIPEFHKATWNRWLESSRDWCISRQLWWGHRIPAYYISFADGREQPLPEENYWVSARTEQEALAKAAQKFQVPEAEILLKWDEDVLDTWFSSGMWPFAVFGWPDATKDMDLFFPGAVLETGHDILFFWVARMVFMAQELTGKLPFKEILLHAMIRDAHGRKMSKSLGNVIDPLDVIRGISLNDLQAQLLGGNLDEKEIAVAKEGQARDYPDGIPECGVDALRFALLSYTSQGRDINLDVLRVHGYRKFCNKLWQVVRFALARISDKPEQKPTFEINLKSATPTDLWILSRLAKAVKETNEALKAYNFTQATTVTYNFWLYDFCDVYVETIKPVLYGDNTTLRQVAISVLHKCIDTGLRLISPLMPFISEELWQRMPRLDDSDYTSPSIIVAQYPLTQKYEKYQNEKLEAAFEFAQELIGKVRSLRADYDLKKTKITMQILSETPEDESMLNDISAVITTLTFSEKVSILNKCESDKIEKGSAHIACGGRCQVYINLTGIIDVPKEIEKLGAKLQKNQISVKKIGDIQSSADYEQKVPVDIRALDQEKKATLEKEIENITAAIAQLKALN | not soluble |
| MIRTLELAPHIEGGYFRQTKKASDTINLAGKGRALYTSIYFLLEETNPSHFHRLTADEIWYFHAGSPLTVHMITADGHYEAVTLGLDISKGQQLHYCVPKGTIWGSTVDKDDALVSCLVAPGFEFEDFELFERVDLLATYPEHKEMIERLTRYLEHHHHHH | not soluble |
| MGSDKIHHHHHHMPIVTIGIDLAKNIFAVHGVDEAGKAMLIKPRVPRDQLATLIAQLPACLIGMEACSGAHHWARLFQQHGHTVKLMAPNLVAPYRMSGKRGKNDAADAAAICEAVARPSMRFVPLKDEHQQATLCLHRTRQGFVEERTATYNRLRGLLPEFGVVLPQSPEKLRRYVTEHLDALPGWAKRSIGDLLEHAGHIEDRLLEYDRAIAEIAREDARSKRLMQLRGVGPTTASALLASIGAGRDFRNGRQVAAWIGLTPGQYSSGGKARLGSITKAGDAYLRGLLVNGARAVIANLGEKQDRFSRWVRTLIERRGYWRAAVAIAAKNARLAWASLKYGEDFKLEPAAD | not soluble |
| MASYLPSEWQDDLKMNGLMSVMKERHVNKVDYDRKLRFWTDAIYGSCIGEKNATFNLLELKKRFRRNDRVPASLDVILDHLKKKGDVITIGEWRDRHSSWVGWGFSKTKGWMFGASSDSEQLLHLPTIKKLGQEILDIYNEELRSEIDCTGEVVTYNEMFDRASNIISKIETFDIVLEHLNDIGELTVGTTRNGEKVLKFKDNGSEDPVKFTEADASVVDIRKAMNKLDREIQQLEQKVKKYDEQCRACLRTGDKGRAQNFLRQRKRAEKDIADKDVQYQKLLTMLHQISSAKNNKDVLQAYKSGTAAFKATLARQGLSPDKIHETMDDVVNSMDEYKEIEEAISSPFVNANGFNDADLEQELEDLISDNKKNESVHLPEAPTNRFGLFDKEVTPEEDQLEKRLARLRQAI | not soluble |
| KKNYALSFNANVGFNKNKVKSLGSLMDYSADSGWASTDIQSDFKVQPGHSVGEIYGFVSDGRYEVSDFEGFIDGKWVLKAGVADASDIIGEKYLRPGAMKLKNVDGSEDNKVTKDDQKVIGDTNPFCSGGFSVNARVYGFDLTANFTYSIGNDIYNANKIEYTSSSKYKYRNMIDVMAEEKRWTNLNADGTICNDPTQLAAMNANTSMWSPWTQKYVLTDWAVEDGSFLRLATLSIGYTLPQTLTRKVGIQNLRFYATGYNLFCITNYSGFDPEVSTRTKSALTPGVDYSAYPRSRQYVIGLNLTF | not soluble |
| MGSDKIHHHHHHMVTTRKPLRAAIIGLGRLGERHARHLVNKIQGVKLVAACALDSNQLEWAKNELGVETTYTNYKDMIDTENIDAIFIVAPTPFHPEMTIYAMNAGLNVFCEKPLGLDFNEVDEMAKVIKSHPNQIFQSGFMRRYDDSYRYAKKIVDNGDIGKIIYMRGYGIDPISGMESFTKFATEADSGGIFVDMNIHDIDLIRWFTGQDPVQAYGLTSNIAAPQLADIGEFETGVAQLKMSDGVIATLIGGRHAAHGNQVELEVMGSNGWVRIGEHPDLNRVTVFNDQGVVRPSLQSFGERFDTAFTDEVQDFVNNVIVGKQPEVTVDDGIKALKIAKACQQSANIGKLVDIQL | not soluble |
| MGSDKIHHHHHHMTPSAGLGLKSQHYGDAIACDAEGLWFEVHPENYMSAGGPRLAALEAVRARRPVSLHGVGLSLAADTDPDPEHLQALKRLVDRFDPFVVSEHLAWSTHRGAHHPDLLPFPRTRAALDRICGNVARMQDALQRRVLIENPSLYLPLKGHALDEVDFLEALATRTGCGLLVDVNNVFVSAQNLGYAPETYLDALPAHAIGEIHLAGHAPDPGGSNLLIDTHGAPVAEVVWTLYARLIARIGPRPTLIERDDDIPDFAALMAERNRAVAVLASGQTAREPAHV | not soluble |
| MSLIIPEKFQHIHRVMNTNIDGNRKVPYALTAIKGVGRRFAFVCCRKADVDVNKRAGELTEEDFDKIVTIMQNPSQYKIPNWFLNRQKDIKDGKTGQLLSTAVDNKLREDLERMKKIRLHRGLRHYWGLRVRGQHTKTTGRKGRTVGVSKKKGG | not soluble |
| MNLLVIGGHERMEKDYMVMAKKKGYKTKVYTTMSSKLNNSIGRPDAVVILTSTVSHKMSRTVESQAKKQDILIVRHKNSLEHHHHHH | soluble |
| MADLSSRVNELHDLLNQYSYEYYVEDNPSVPDSEYDKLLHELIKIEEEHPEYKTVDSPTVRVGGEAQASFNKVNHDTPMLSLGNAFNEDDLRKFDQRIREQIGNVEYMCELKIDGLAVSLKYVDGYFVQGLTRGDGTTGEDITENLKTIHAIPLKMKEPLNVEVRGEAYMPRRSFLRLNEEKEKNDEQLFANPRNAAAGSLRQLDSKLTAKRKLSVFIYSVNDFTDFNARSQSEALDELDKLGFTTNKNRARVNNIDGVLEYIEKWTSQRESLPYDIDGIVIKVNDLDQQDEMGFTQKSPRWAIAYKFPAEEHHHHHH | soluble |
| MAHHHHHHSLKQKNAYNRLTNHYDDVLTGRKWWSWLYMHCLWKTDDNIIAGSVLDMIPGNFEGRILDVPVGTAIFTYDKYRRMPQAEIVGLDYSQEMLDIAAMRFSAEQITNVSLRQGDVGSLPFPDAAFDLVLSMNGFHVFPDKDRAFAETFRVLRGGGLFCGCFYVKGERKPADWFVRKFLDKKGLFRPPHYTREEAIEKLRSLYGDNVEIQDARSLLVFKCTKPREG | soluble |
| MNDDTRARGGREGGLRAARDRLQPALLDRLTDDERARCTEPPDAQAIGGERLRAAVLRDLAWLLNTRNGEDGFVDWAAFAHAQASVLNYGMRPLVGKPMSGVERMSVEASIRDAIVRFEPRIAPDSVEVRSVLDAPGGAAGERRHNVLMFEIKGTLWSVPHPVEFVLRSALDLETGAMALQPAAGG | not soluble |
| MENVCFQQRLRDLETRVRKWKFLKLGLTEVRLRPRDRRSTSVDQKHKECSSTSSSPQHQRPNNIGYLTSPMERKFTPLSMKPSPSRRDTEKDALEYEFLEGYKKSGTLEIDGEKQVVDPNEIHIISLLGSGSCGVVESATVRSKLMAVKTMYKNDNKENLKRILRDVRIMSMCNSPFIVTSYGYFMFDSSVKICMQIMSACCEKLLRRIYHSKLDFFPEFVAGHIVYSAISALDYLKEKHSIIHRDIKPSNILFDDSGNVKLCDFGISGFMTDSMAHSKSAGCPPYMAPERLTIETNSKYDVRSDVWSLGITVYQLVTGLYPFPLNDMEFTTLTIIANLNLPSPSLREETKRSFSPLFIEFLDLCLRKDVRERPEYRQLMKHDFYLDYDPASGSAYKFKAINGKCNQVADWFVDVIRLSKTEDELKSIPNTPCVN | not soluble |
| MKLIPFPYPLNIGTDVVHLPRILRLINRPDYFHRFTRRILHEQEQRDFRTRFSLPPPSSGAEKTGLNPITPDMARWLAGRFAAKEAARKAAPAGASSLGWKDVIVRVGEADKGRPEIVYLDPMGCGETGGGRVGKLSISHDGDYVVATVLAAG | not soluble |
| SEFQSTVVATVDCQKQVRSWRLLRSFIQLLIPTCNCTLVQELEQDNTNLRGKKLYNDIKSRTSSFRSSSSLSSSTVTGTIFGYRKGKINFCIQTPRKSTNLDLLLELAVPTTVLAREMREGALRIVLERNNEKQDDDSFLSKPFWNMYCNGKRVGYARKRSPSQDDMTALTALSKVVVGAGVVTGKELGRFDDELMYLRASFRRVNGSKESESFHLIDPAGNIGQELSIFIVPSSV | soluble |
| MSDLVTKFESLIISKYPVSFTKEQSAQAAQWESVLKSGQIQPHLDQLNLVLRDNTFIVSTLYPTSTDVHVFEVALPLIKDLVASSKDVKSTYTTYRHILRWIDYMQNLLEVSSTDKLEINHDLDLPHEVIEKKKKAPAGGAADAAAKADEDVSKKAKKQDHPRGKPDEETLKKLREEAKAKKAAKKAANAKQQQEQQNKAPEKPKPSAIDFRVGFIQKAIKHPDADSLYVSTIDVGDEEGPRTVCSGLVKHFPLDAMQERYVVVVCNLKPVNMRGIKSTAMVLCGSNDDKVEFVEPPKDSKAGDKVFFEGFGDEAPMKQLNPKKKIWEHLQPHFTTNDGLEVIFKDEEEKDHPVRKLTNAKGESFKVASIANAQVR | not soluble |
| MRAIRVHEVGGPEVLRLEELPVPEPGPGEVLVRLLAIGVNFIDTYKRKGLYPVPAPFTLGEEGAGVVEKVGEGVVGVRPGDRVAFANVQGAYAEYLVVPAERLVPVPEGLDPKLAAAALLQGMTVHYLLKSTYPVAPGDQVLVHAGAGGVGQLLIQWAKRLGATVYATASTEEKRGLCLQAGADYALPYEGFAEAVKALSGGGVDVVYDGVGKDTFLGSLAALRPRGMLVLFGQSSGPVPPQDPQILNRMGSLFLTRPTLHHYTASRKELLFRPGEVFRGVLKGWLKVRIGAEFPLENARKGPRGPRGPKDHGQGPPPALGRGNRAHFSGSGVVYYGPFQGLM | soluble |
| PITDERVYESIGHYGGETVKIVRIEKARDIPLGATVRNEMDSVIISRIVKGGAAEKSGLLHEGDEVLEINGIEIRGKDVNEVFDLLSDMHGTLTFVLIPS | soluble |
| MGSDKIHHHHHHALEENKEAKSLLEGIWLDDNTETALLRVKGDTLFYADAATAPVAFKIIGDSLITYGARTNGYKIEKQGEHIFWFHSAVGDVIRLHKSDTENDSLAFIHTREIPVYNEVIKKDSVVTYDNVRYRGYVYINPSKIKVMRPGVSEEGLGVDNVYYDNIIHICVYEGRKSLYAKDITKQMFKGVVPDDFLQWAILSDMDFMGVDSKGYHYQATVCIPDGASCYMVNITAGKDGGLAFELVR | not soluble |
| GPGSMPSLNFFLADESRLESSRDDSTAEVAHFTPSQHALRRILISTAMANKSLEYVQGMNEYVAHLLYAFAKGKASNLTASVEADTFFCFQTLLSYLGDDFCRSFDFDAACGLTSTMRLFDNVLRFFDPSLFQHLEYLGINAEHYALRWIMLLFTQEFNIADGLRVWDFLLSFGDEIRNAAFFVAAAMCHHLRSSILSGEAMSDVLPLLQEYPAGDVNLFLRIALKWIVKFDFDLLHELKPLSPEGVQALRCSRGLEGGMNFVQVMQSWVPSIF | not soluble |
